Laboratory results from patent publication US20260201030A1 (EVOPOINT BIOSCIENCES, published 2026).

What was measured:
human Claudin18.2 [1] = target: T1, human Claudin18.2 (human, UniProt P56856-2 1-261); assay: cell-based or functional assay
human Claudin18.2 [2] = target: T1, human Claudin18.2; assay: FACS on NUGC4-Claudin18.2 (human) cells
Protocol: (§1) The affinity of the anti-human Claudin18.2 humanized antibodies was detected by flow cytometry. The experimental procedures were as follows: The adherent cultured HEK293T-Claudin18.2 (human), NUGC4-Claudin18.2 (human) and NUGC4 cells were digested, collected by centrifugation, and washed three times with pre-cooled PBS. The cells were resuspended in 1% BSA (in PBS) and added to a 96-well pointed bottom plate at 3×10⁵ cells/well, with a volume of 50 μL per well. Each test antibody was diluted with 1% BSA (in PBS) (starting at 100 μg/mL, diluted in a 3-fold gradient, for 10 concentration points). The test antibody subjected to gradient dilution was added to the cells at 50 μL/well, and the mixture was well mixed and incubated at 4° C. for 1 h. The cells were collected by centrifugation, washed three times with pre-cooled PBS, and resuspended in 50 μL of 1% BSA (in PBS). 1 μL of a fluorescent secondary antibody (Biolegend-410712) was added to each well, and the mixture was well mixed and incubated at 4° C. for 0.5 h. The cells were collected by centrifugation, washed three times with pre-cooled PBS, resuspended in 200 μL of PBS, and assayed on a machine.

human Claudin18.2 [3] = target: T1, human Claudin18.2; assay: FACS on HEK293T-Claudin18.2 (human) cells
Protocol: as §1

mouse Claudin18.2 = target: T2, mouse Claudin18.2 (mouse, UniProt P56857-3 1-264, limits assumed); assay: FACS on HEK293T-Claudin18.2 (mouse) cells
T2 construct: whole, on cells; also called HEK293T-Claudin18.2 (mouse)
T2 sequence (P56857 other isoform, or with tags, fused parts or gaps limits assumed): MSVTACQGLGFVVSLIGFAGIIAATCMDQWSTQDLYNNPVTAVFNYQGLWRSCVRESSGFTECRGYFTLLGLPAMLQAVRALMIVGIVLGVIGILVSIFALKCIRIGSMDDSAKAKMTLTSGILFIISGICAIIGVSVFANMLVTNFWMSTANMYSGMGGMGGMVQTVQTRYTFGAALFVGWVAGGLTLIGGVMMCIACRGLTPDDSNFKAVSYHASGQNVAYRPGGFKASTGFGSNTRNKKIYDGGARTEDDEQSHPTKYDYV
Protocol: The mixture was incubated at 4° C. for 0.5 h, and the cells were washed three times with pre-cooled PBS, then resuspended, and assayed on a flow cytometer.

human Claudin18.2 [4] = target: T1, human Claudin18.2; assay: cell-based ELISA on L929-Claudin18.2 (human) cells
human Claudin18.2 [5] = target: T1, human Claudin18.2; assay: cell-based ELISA on NUGC4-Claudin18.2 (human) cells
human Claudin18.2 [6] = target: T1, human Claudin18.2; assay: cell-based ELISA on HEK293T-Claudin18.2 (human) cells
Protocol: The affinity of the anti-human Claudin18.2 murine monoclonal antibodies was evaluated by cell-based ELISA. The experimental procedures were as follows: The day before the experiment, HEK293T-Claudin18.2 (human) cells were plated in a 96-well plate at 5×10⁴ cells/well. On the day of the experiment, the supernatant was removed, the cells in each well were washed once with 300 μL of PBS, and 100 μL of 4% paraformaldehyde was added to each well for fixation at room temperature for 20 min. Paraformaldehyde was then removed, and the cells in each well were washed twice with 300 μL of PBS. 100 μL of 2% BSA (in PBS) was added to each well, and the mixture was blocked at 37° C. for 2 h. After removing the blocking solution, each antibody subjected to gradient dilution (diluted with 2% BSA (in PBS), starting at […], in a 3-fold gradient, for a total of 11 concentration points) was added to the plate at 100 μL/well, and the mixture was incubated at 37° C. for 2 h. The supernatant was removed, and the cells in each well were washed three times with 300 μL of PBST. […] The reaction was stopped by adding 50 μL of 2 N HCl to each well, and OD_{450 nm} values were read on a microplate reader (manufacturer: MD, model: SpectraMax). […]
The affinity of the anti-human Claudin18.2 humanized monoclonal antibodies was determined by cell-based ELISA. […]

human Claudin18.1 = target: T3, human Claudin18.1 (human, UniProt P56856 1-261); assay: FACS on HEK293T-Claudin18.1 (human) cells, antibody 50 µg/mL
T3 construct: whole, on cells; also called CLDN18.1; HEK293T-Claudin18.1 (human)
Protocol: The specificity of the anti-human Claudin18.2 humanized monoclonal antibodies was determined by flow cytometry (FACS). The experimental procedures were as follows: HEK293T-Claudin18.1 (human) cells were digested, collected by centrifugation, washed three times with pre-cooled PBS, resuspended in 1% BSA (in PBS), and added to a 96-well pointed bottom plate at 3×10⁵ cells/well. Each test antibody with a final concentration of 50 μg/mL was added, and the mixture was incubated at 4° C. for 1 h. The cells were washed three times with pre-cooled PBS, and then 1 μL of a fluorescent secondary antibody (APC: Biolegend-410712 or PE: BioLegend-410708) was added to each well. The mixture was incubated at 4° C. for 0.5 h, and the cells were washed three times with pre-cooled PBS, then resuspended, and assayed on a flow cytometer. For reference, anti-human Claudin18.1 positive control antibodies (positive control antibody-1 and positive control antibody-2) were included in the experiment.

human Claudin18.2 [7] = target: T1, human Claudin18.2; assay: cell-based ELISA on NUGC4 cells (endogenous human Claudin18.2)
human Claudin18.2 [8] = target: T1, human Claudin18.2; assay: cell-based ELISA (OD450) on NUGC4 cells (endogenous human Claudin18.2)
human Claudin18.2 [9] = target: T1, human Claudin18.2; assay: cell-based ELISA on L929-claudin 18.2 (human) and NUGC4 cells, ADC

Row | ADCC activity EC50 (Jurkat-NFAT-CD16a luciferase reporter, HEK293T-Claudin18.2 (human) target cells) (human Claudin18.2 [1]) | EC50 (human Claudin18.2 [2]) | EC50 (human Claudin18.2 [3]) | Maximum signal value (human Claudin18.2 [3]) | EC50 (mouse Claudin18.2) | EC50 (human Claudin18.2 [4]) | EC50 (human Claudin18.2 [5]) | EC50 (human Claudin18.2 [6]) | Positive rate (%) (human Claudin18.1) | EC50 (human Claudin18.2 [7]) | Maximum signal value (human Claudin18.2 [8]) | binding result (human Claudin18.2 [9]) | Binder | CDC activity EC50 (guinea pig serum killing, CCK8, HEK293T-Claudin18.2 (human) cells) (human Claudin18.2 [1])
1 | 0.0465 µg/mL | 3.19 µg/mL | 0.292 µg/mL | 114000 | 0.941 µg/mL | 0.0134 µg/mL | 0.108 µg/mL | 0.0112 µg/mL | 0.54% | 0.101 µg/mL | 0.304 |  | 25C7A5-HZ1 (antibody, human IgG1, kappa, Humanized IgG1/kappa) heavy: not shown light: EIVLTQSPATLSLSPGERATLSCKASENVKTYVSWYQQKPGQSPRLLIYEASNRYTGVPARFSGSGSATDFTLTISSLEPEDFAVYFCGQTYSFPPTFGQGTKVEIKRTVAAPSVFIFPPSDEQLKSGTASVVCLLNNFYPREAKVQWKVDNALQSGNSQESVTEQDSKDSTYSLSSTLTLSKADYEKHKVYACEVTHQGLSSPVTKSFNRGEC | 3.14 µg/mL
2 |  |  |  |  |  |  |  |  |  |  |  | binds | ADC formed by conjugation of 25C7A5-HZ1 (antibody, human IgG1, kappa, toxin linker conjugated to cysteine sulfhydryl groups after TCEP reduction (positions not given); toxin linker conjugated to cysteine sulfhydryl groups after TCEP reduction (positions not given); DAR 6.82 (B82 batch) or 7.97 (B81 batch), also called conjugated 25C7A5-HZ1; 25C7A5-HZ1-B82) heavy: not shown light: EIVLTQSPATLSLSPGERATLSCKASENVKTYVSWYQQKPGQSPRLLIYEASNRYTGVPARFSGSGSATDFTLTISSLEPEDFAVYFCGQTYSFPPTFGQGTKVEIKRTVAAPSVFIFPPSDEQLKSGTASVVCLLNNFYPREAKVQWKVDNALQSGNSQESVTEQDSKDSTYSLSSTLTLSKADYEKHKVYACEVTHQGLSSPVTKSFNRGEC | 
3 |  |  |  |  |  |  |  |  |  |  |  | binds | ADC formed by conjugation of 25C7A5-HZ2 (antibody, human IgG1, kappa, toxin linker conjugated to cysteine sulfhydryl groups after TCEP reduction (positions not given); toxin linker conjugated to cysteine sulfhydryl groups after TCEP reduction (positions not given); DAR 7.10, The label B82 is not explained; also called conjugated 25C7A5-HZ2; 25C7A5-HZ2-B82) heavy: not shown light: EIVLTQSPATLSLSPGERATLSCKASENVKTYVSWYQQKPGQSPRLLIYEASNRYTGVPARFSGSGSATDFTLTISSLEPEDFAVYFCGQTYSFPPTFGQGTKVEIKRTVAAPSVFIFPPSDEQLKSGTASVVCLLNNFYPREAKVQWKVDNALQSGNSQESVTEQDSKDSTYSLSSTLTLSKADYEKHKVYACEVTHQGLSSPVTKSFNRGEC | 
